According to patent US20210284746A1 (NGM BIOPHARMACEUTICALS, published 2021):

Target: T1, soluble human GCGR extracellular domain (human, UniProt P47871 26-136, limits assumed)
T1 construct: also called soluble GCGR; glucagon receptor extracellular domain
Assay: SPR (Biacore), purified antibody re-tested; format as described for the screen: antibody captured by anti-mouse Fc, soluble human GCGR extracellular domain as analyte, 25 C
Method: In addition, supernatants were screened for binding to human GCGR using a Biacore SPR system. Briefly, anti-mouse Fc antibody (Sigma-Aldrich) was immobilized on all four flow cells of a CM5 chip using amine coupling reagents (GE Healthcare LifeSciences). Hybridoma supernatants were diluted three-fold with PBS-P buffer (PBS containing 0.005% P20-PBS-P) and injected for 30 seconds over flow cells 2, 3 and 4 to capture the test antibodies and using flow cell 1 as a reference. The next step was an injection of soluble human GCGR extracellular domain (100 nM in PBS-P buffer) at a flow rate of 50 μL/min and monitoring of the binding kinetics at 25° C. Kinetic data were collected over time and fit using the simultaneous global fit equation to yield affinity constants (KD values) for each antibody.

T1 sequence (P47871 26-136 limits assumed): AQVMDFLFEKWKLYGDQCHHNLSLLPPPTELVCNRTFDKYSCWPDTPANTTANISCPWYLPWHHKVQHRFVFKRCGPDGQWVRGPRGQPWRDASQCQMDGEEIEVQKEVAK

Kd	Binder
0.2 nM	13G9 (antibody, V domains shown, Mouse hybridoma antibody, purified; also called anti-GCGR antibody 13G9) VH: QVQLQQSGAELVRPGTSVKISCKASGYTFTNYWLGWVKQRPGHGLEWIGDIYPGGDYNNYNGKFKGKATLTADTSSSTAYIQLSSLTSEDSAVYFCVRSDDGYSWGQGTTLTVSS VL: DVLMTQTPLSLPVSLGDQASISCRSSQSIVDSYGNTYLEWYQQKPGQSPTLLIYKVSNRFAGVPDRFSGSGSGTDFTLKISRVEAEDLGVYYCFQGSHIPWTFGGGTKVEIK
0.2 nM	6B5 (antibody, V domains shown, Mouse hybridoma antibody, purified; also called anti-GCGR antibody 6B5) VH: QVQLQQSGTELVRPGTSVKISCKASGFTFTNHWLGWVKQRPGHGLEWIGDIYPGGYYINYNEKFKGKATLTADTSSSTAYMQLSSLTSEDSAVYFCARHTNYGSDYWGQGTTLTVSS VL: DVLMTQIPLSLPVSLGDQASISCRSSQSIVDSYGNTFLEWYLQKPGQSPKLLIYKVSNRLSGVPDRFSGTGAGTDFTLKISRVEAEDLGIYYCFQGSHVPWTFGGGTKLEIK
0.6 nM	14F4 (antibody, V domains shown, Mouse hybridoma antibody, purified; also called anti-GCGR antibody 14F4) VH: QVQLQQSGAELVRPGTSVNMSCKATGYTFTNYWIGWVKQRPGHGLEWIGDIFPGGFYSNYNEKFKGKATLTTDTSSSTGYMQLSSLTSEDSAIYYCARIWDRGFDYWGQGTTLTVSS VL: DVLMTQSPLSLPVSLGDQASISCRSSQSIVDSYGNTYLEWYLQKPGQSPKLLIYKVSNRFSGVPDRFSGSGSGTDFTLKISRVEAEDRGLYYCFQGSHVPYTFGGGTKLEIK
